Measured values reported in IntAct's records for PubMed 29549094.

B1: Syntaxin-17 (Homo sapiens), P56962 (parent)
chain: MSEDEEKVKLRRLEPAIQKFIKIVIPTDLERLRKHQINIEKYQRCRIWDKLHEEHINAGRTVQQLRSNIREIEKLCLKVRKDDLVLLKRMIDPVKEEASAATAEFLQLHLESVEELKKQFNDEETLLQPPLTRSMTVGGAFHTTEAEASSQSLTQIYALPEIPQDQNAAESWETLEADLIELSQLVTDFSLLVNSQQEKIDSIADHVNSAAVNVEEGTKNLGKAAKYKLAALPVAGALIGGMVGGPIGLLAGFKVAGIAAALGGGVLGFTGGKLIQRKKQKMMEKLTSSCPDLPSQTDKKCS
partner: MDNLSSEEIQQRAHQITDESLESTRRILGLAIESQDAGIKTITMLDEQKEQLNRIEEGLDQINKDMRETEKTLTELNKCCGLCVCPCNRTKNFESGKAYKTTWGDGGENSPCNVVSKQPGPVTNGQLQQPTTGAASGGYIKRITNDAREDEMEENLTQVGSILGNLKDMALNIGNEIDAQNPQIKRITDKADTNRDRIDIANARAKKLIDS
B2: Syntaxin-17 (Homo sapiens), P56962 (parent)
chain: B1 chain

Variants of: B1
Settings: with snp23_human SNAP23, O00161

| effect of a mutation on the interaction | Variant |
| --- | --- |
| decreasing interaction strength | K254C |

Variants of: B2
Settings: with acsl3_human ACSL3, O95573
acsl3_human ACSL3, O95573, sequence (O95573 whole entry): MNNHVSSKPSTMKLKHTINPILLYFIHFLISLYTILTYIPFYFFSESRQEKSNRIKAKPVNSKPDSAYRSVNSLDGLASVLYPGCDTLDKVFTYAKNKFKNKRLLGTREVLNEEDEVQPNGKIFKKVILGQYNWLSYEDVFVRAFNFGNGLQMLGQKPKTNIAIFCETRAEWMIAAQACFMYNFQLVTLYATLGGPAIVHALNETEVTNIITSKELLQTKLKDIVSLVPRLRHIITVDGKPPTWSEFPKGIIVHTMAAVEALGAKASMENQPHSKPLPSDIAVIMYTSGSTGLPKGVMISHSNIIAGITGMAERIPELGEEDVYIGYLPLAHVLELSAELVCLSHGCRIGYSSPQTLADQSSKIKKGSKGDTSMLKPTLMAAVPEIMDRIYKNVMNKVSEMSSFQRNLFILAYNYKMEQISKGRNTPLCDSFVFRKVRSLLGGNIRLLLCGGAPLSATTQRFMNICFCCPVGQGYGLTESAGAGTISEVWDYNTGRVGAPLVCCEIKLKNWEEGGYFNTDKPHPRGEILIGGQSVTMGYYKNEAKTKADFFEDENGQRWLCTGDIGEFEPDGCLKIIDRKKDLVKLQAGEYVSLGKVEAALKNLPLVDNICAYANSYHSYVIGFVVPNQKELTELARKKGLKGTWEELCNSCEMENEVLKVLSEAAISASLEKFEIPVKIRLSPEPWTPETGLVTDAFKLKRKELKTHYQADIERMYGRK

| effect of a mutation on the interaction | Variant |
| --- | --- |
| with no effect | K254C |
